Measured values reported in the nanobody polyreactivity screen of Harvey et al. (2022).

Test: yeast display, Sf9 membrane polyspecificity reagent, FACS + sequencing; frameworks hold sequencing errors
How it was run: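 Nanobodies from a synthetic yeast display library (Saccharomyces cerevisiae BJ5465), induced 36–48 hours with galactose, were stained 1 hour at 4 °C with 10% biotinylated, detergent-solubilized Sf9 membrane reagent, enriched on streptavidin microbeads, then FACS-sorted. Anti-HA (expression) and streptavidin (reagent binding) fluorescence set low and high (top ~1%) gates. Polyreactivity labels come from the gate of origin. Genes were colony-PCR amplified, MiSeq 2 × 250 sequenced and filtered by CDR length.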

| Sequence | polyreactivity (PSR sort gate) |
| --- | --- |
| QVQLVESGGGLVQAGGSLRLSCAASGFTFGRNTMGWYRQAPGKERELVAAITRRGGTTHYADSVKGRFTISRDNAKNTVYLQMNSLKPEDTAVYYCAADPFNSYYGRYDYWGQGTQVTVSS | high polyreactivity |
| QVQLVESAGGLVQAGGSLRLSCAASGSTFVGYAMGWYRQAPGKERELVAAISGSGTSTYYADSVKGRFTISRDNAKNTVYLQMNSLKPEDTAVYYCNADPIFVYSSYNYWGQGTQVTVSS | low polyreactivity |
| QVQLVESGGGLVQAGGSLRLSCAASGRIFRRNAMGWYRQAPGKERELVAAITSNGGRTYYADSVKGRFTISRDNAKNTVYLQMNSLKPEDTAVYYCAADTYDNDYYYWGQGTQVTVSS | high polyreactivity |
| QVQLVESGGGLVQAGGSLRLSCSASGSTFESNAMGWYRQAPGKERELVASISGSGGSTFYADSVKGRFTISRDNAKNTVYLQMISLKPEDTAVYYCAAYKEPYYEEYGYWGQGTQVTVSS | low polyreactivity |
| QVQLVESGGGLVQAGGSLRLSCAASGIIFFWNAMGWYRQAPGKERELVAAISSGGSTFADSVKGRFTISRDNAKNTVYLQMNSLKPEDTAVYYCAARFYHGYRPYIAIYGYGYWGQGTQVTVSS | low polyreactivity |
| QVQLVESGGGLVQAGGSLRLICAASGGTFWIYAMGWYRQAPGKERELVAGITTSGATTYYADSVKGRFTISRDNAKNTVYLQMNSLKPEDTAVYYCAADEYYRYEYWGQGTQVTVSS | low polyreactivity |
| QVQLVESGGGLVQAGGSLRLSCAASGSIFQGNAMGWYRQAPGKERELVAAISSRGGTTYYADSVKGRFTISRDNAKNTVYLQMNSLKPEDTAVYYCARDSGYYWYYRYGYWGQGTQVTVSS | high polyreactivity |
| QVQLVESGGGLVQAGGSLRLSCAASGFIFGRNAMGWYRQAPGKERELVAAINWRGGSTYYADSVKGRCTISRDNAKNTVYLQMNSLKPEDTAVYYCAARGPYRYGYDYWGQGTQVTVSS | high polyreactivity |
| QVQLVESGGGLVQAGGSPRLSCAASGRIFGVNAMGWYRQAPGKERELVAAISVSGDSTYYADSVKGRFTISRDNAKNTVYLQMNSLKPEDTAVYYCYAGYTFVPADLTDEYYWGQGTQVTVSS | low polyreactivity |
| QVQLVESGGGLVQAGGSLRLSCAASGRNFYQYGMGWYREAPGKERELVAAISDSGGGTYYADSVKGRFTISGDNAKNTVYLQMNSLKPEDSAVYYCAATYVGPRRRYYYWGQGTQVTVSS | high polyreactivity |
| QDQLVESGGCLVQAGGSLPLSCAASVFTFSNNVMGWYRQAPGQVRELVATLSKSGGSTYYAVSVKVRFTISRDKAKNSVYLQMNSLNPEATEVYYCASRFGDYGRFAYWGQGTQVSVSS | high polyreactivity |
| QVQLVESGGGLVQAGGSLRLSCPASGSIFRSYAMGWYRPAPGKERELVASISRRGGSSYYADSVKGRFTISRDNAKNTVYLQMNSLKPEDTAVYYCAAVRYNSRGSTTPSEMYYWGQGTQVTVSS | low polyreactivity |
| QVQLVESGGGLVQAGGSLRLSCAASGRIFRYNAMGWYRQAPGKERELVAAITQSGGNTYYADSVKGRFTISRDNAKNTVYLQMNSLKPEDTAVYYCAAATRQFAGQRYGYWGQGTQVTVSS | high polyreactivity |
| QVQLVESGGGLVLAGGSLRLSCAASGSTFDTYAMGWYRQAPGKERELVAAITSGGITNYADSVKGRFTISRDNAKNTVYVQMNSLKPEDTAVYYCAKEGFWPRQARRLDYWGQGTQVTVSS | low polyreactivity |
| QVQLVESGGGLVQAGGSLRLSCAASGSIFGLYAMGWYRQAPGKERELVAAINQSGGSTSYADSVKGRFTISRDNAKNTVYLQMNSLKPEDTAVYYCNRVRLNTEGFDYWGQGTQVTVSS | low polyreactivity |
| QVQLVESGGGLVQAGGSLRLSCAASGITFARYAMGWYRQAPGKERELVAAISQSGGSTYYADSVKGRFTISRDNAKNTVYLQMNSLKPEDTAVYYCNAYYVNYVSNYEYWGQGTQVTVSS | high polyreactivity |
| QVQLVESGGGLVQAGGRLRLSCAASGSIFLHNAMGWYRQAPGKERELVAAISGTGGRTYYADSVKGRFTISRDNAKNTVYLQMNSLKPEDTAVYYCAVVFYHRHSYYWGQGTQVTVSS | high polyreactivity |
| QVQLVESCGGLVQAGASLRLSCAASGSTFKYYTMGWYIQSPGKERELVAAISFSGARTYYADSVKGRFTISRDNAKNNVYLQMNSLKPEDTAVYYCAKRATWYTVPREGYWGQGTLVTVSS | high polyreactivity |
| QEQLHESGGGLVQAGGSLRLSCAASRTISVTYNMGWYRQATGKEREFVAGNSTGDTTNYADSVKGRFTISRDNAKNTVYLQMNSLKPEDTAVNYCSAHIYRQDHFYYWGQGTQVTVSS | low polyreactivity |
| QVQLVESGGGLVQAGGSLRLSCAASGIIFARYAMGWYRQAPGKERELVASINWTGGNTYADSVKGRFTISRDNAKNSVYLQMNSLNPEDTAVYYCARDFSPGSSDPNASISFDHWGQGTQVTVSS | low polyreactivity |
| QVQLVESCGGLVQAGGSLRLRCAASRSIFDSYAMGWYRQAPGKERELVASISYRGGSTYYADSVKGRFTISRDIAKNTVYLQMNSLKPEDTAVYYCAATPGYHYRSWRYYYWGQGNQVTVSS | high polyreactivity |
| QVQIVESGGGLVQAGGSLRLSCAASGSIFYRNAMGWYRQAPGKERELVAAISSDGSTNYADSVKGRFTISRDNAKNTVYLQMNSLKPEDTAVYYCAAPWTQILDYWGQGTQVTVSS | low polyreactivity |

| Sequence | polyreactivity (PSR sort gate) |
| --- | --- |
| QVQLVESGGGLVQAGGSLRLSCAASGTIFPGYTIGWYRQAPGKEREFVAAISRRGGSTYYADSVKGRFTISRDNAKNTVYLQMNSLKPEDTAVYYCPKVPDYRFEYWGQGTLVTVSS | high polyreactivity |
| HVQLVESGGGLVQAGGSLRLSCAASGRISDRYAMGWSRQAPGKEREFVAAISWSGASTYYADSVKGRFTISRDNAKNTVYLQMNSLKAEDTAVYYCAARRRHKYDYWGQGTQVTVSS | high polyreactivity |
| QVQLVESGGGLVQAGGSHRLSCAASGSTLTWYAMGWYRQAPWKEWELVDTISSSTGSTRYADSVKGRFTISRDNAKNSVYLRINSLKPDDTAVYYCAKAYALRYARGRARYDYDFWGQGTQVNVSS | low polyreactivity |
| QVQLVESGGGLVQAGGSLRLSSAASGSIFRRYALGWYRQEPGKESELVAAISRSAGSTYYADSVKGRFTISRDNAKNTVYLQMNSLKPEETAVYYCKTDPSRSPGDVVSASVIKRDYWGQGTQVTVSS | low polyreactivity |
| QVQLEDSGGGLVQAGGTLRLSCAASGIIFAYNYMGWNRHATRKERELVATISSAGNTNYADSVKGRFTISRDNAKNTVYLQMNSLKPEETAVYYCAAEFFIVVTDEYDYWGQGTQVTVSS | low polyreactivity |
| QVHLVESGGGLVQAGGSLRLSCAASGSTLVTNAIGWYRQAPGKERELVAAITFSGGTTYYADSVKGRFTISRDNAKNTVYLQLNSLKPEDTAVYYCAAENWLEYVGYDFWGQGTHVTVSS | high polyreactivity |
| QVQLVESGGGLVQAGGSLRLSCAASGGTFYYNTMGWYRQAPGQERELVAAIRSTGGSTYDADSVKGRFTISRDNAKNTVYLQMNSLKPEDTAVYYCAKKVYTRRRGSDYWGQGTQVTVSS | high polyreactivity |
| QVQLVDSGGGLVQGGGRLRLSCAASGFTLQSNAMGWYRQAPGKERELVAAISFRGGSTYYADSVKGRFTISRDNAKNTVYLQKNSLKPEDTAVYYCAADFYVHSAYYYGYWGQGTQVTVSS | low polyreactivity |
| QVQLVESGGGLVQAGGSLRLSCAASGYTFRAYAMGWYRQAPGKEREYVAAISRSGGSTYYADSVKGRFTISRDNAKNTVYLQMNSLKPEDTAVYYCNKVYRWAGYDYWGQGSQVTVSS | high polyreactivity |
| QVQLQESGGGLVQAGGSLRLSCAASGYISSWYPMGWYRQAPGKEREFVATIAPRATTYYADSVKGRFTISRDYAKNTVYLQMNSLKPEDTAVYYCAAGPENNDVYSYWGQGTQVTVSS | low polyreactivity |
| QVQLVESGGGLVQAGGSLRLSCAASGRTFQFYTMGWYRQAPGKERELVAVITVSSASTFYADSVKGRFTISRDNAKNTVYLQMNSLKPEDTAVYYCAAGLVLNVGMDSWGQGTQVTVSS | low polyreactivity |
| QLQHVESGGGLVQAGGSLRLSCADSGRTFQYYAMGSYRQPPGKESELVAAINTSGGRTSYADSVKGRFTISRDNAKNTVYLQMNILKPEDTAVYYCAAKPFSYVYSSYYYWGQGTQVTVSS | high polyreactivity |
| QVQLVESGGGLVQAGGSLRLSCAASGRNFNQYGMGRYIPAPGKERELVAAIRSGDSTNYADSVKGRFTISRDNAKNTVYLQMNSLKPEDTAVYYCARDRPGDYAGYDYWGQGTQVNVSS | low polyreactivity |
| QVQLQESGGGLVQAGDSQRLSCAASGNIFRFTDMGWYRQAPGKERELVAAINAGSTTYYADSVKGRFTISRDNAKNTVYLQMNSLKPEDTAVYYCAVYYLGSGTFGYWGQGAQVTVSS | high polyreactivity |
| QVQLLESGGGLVQAGGTLRLSCAASGRISWYNAMGWYRQAPGKERELVAAIRGGGSTHYADSVKGRFTISRDNAKNTVYLQMNSLKPEDTAVYYCAAYLYYPFYWWRDYWGQGTQVTVSS | high polyreactivity |
| QVQLVESGGGLVQAGGSLRLSCAASGFTFFVNAMGWYRQAPGKERELVAAISIRSGGRTYYADSVKGRFTISRDNAKNTVYLQMNSLKPEDTAVYYCAAESSRPEHTYHYYRFLFDYWGQGTQVTVSS | low polyreactivity |
| QVQLVESGGGLVQAGGSLRLSCAASGITFRTYAMGWYRQAPGKERELVAAITRGDSTYYADSVKGRFTISRDNAKNSVYLQMNSLKPEETAVYYCAKESYIVNSRYYTGKMYYWGQGTQVTVSS | low polyreactivity |
| QVQLVESGVGLVQAGGSLRLSCAASGSTFGGYAMGWYRQAPGKERELVAAITSRSGRTYYADSVKGRFTISRDIAKNTVYLQMNSLKPEDTAVYYCATPQYPGRDYWGQGTQVTVSS | high polyreactivity |
| QGQLVESGGGLVQAGGRLRLSCAASGFIFCIYAMAWYRTATGKQREFVAVSTYRGDTKYYADSVKGRFTISRDNAKNTVYLQMNSLKAEDTAVYSCAAYTVQKYGYWGQGTQVTVSS | low polyreactivity |
| QVQLVETGGVLVQAGGSLRLSFAASGIIFSISALGGYRQAPGKERELVAAITYSGGRTYYADSVKGRFTISRDTAKNTVYLQMNSLKPEDTAVYYCAADYYYYGSYYPVEYWGQGTQVTVSS | high polyreactivity |
| QVQLVESGGGLVQAGGSLRLSCAASGSIFIGNTMGWYRQAPGKERELVATIRRSGSRTYDADSVKGRFTISRDNAKNTVYLQMNSLKPEDTAVYYCAADRLRTSGYKTIYDYWGQGTQVTVSS | low polyreactivity |
